Experimental findings from patent publication US20260209387A1, “SINGLE-DOMAIN ANTIBODY FOR INHIBITION OF NEUTROPHIL ELASTASE ACTIVITY” (UNIVERSITE DE LIEGE, priority 2023, published 2026) are described below.

In experiment [1] the target is T1, human neutrophil elastase (human, UniProt P08246 30-247, glycans (NAG-NAG-FUC) at N109 and N204, chymotrypsinogen numbering, seen in the crystal).
T1 sequence: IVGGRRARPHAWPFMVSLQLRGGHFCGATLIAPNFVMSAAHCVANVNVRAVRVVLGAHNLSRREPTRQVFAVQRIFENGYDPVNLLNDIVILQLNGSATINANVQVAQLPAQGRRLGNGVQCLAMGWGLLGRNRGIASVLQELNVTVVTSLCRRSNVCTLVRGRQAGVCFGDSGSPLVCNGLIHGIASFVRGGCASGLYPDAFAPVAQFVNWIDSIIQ
As to the kind of experiment: cell-based or functional assay.

For experiment [2], the target named is T2, human proteinase 3 (human, UniProt P24158 28-248).
T2 sequence (looked up): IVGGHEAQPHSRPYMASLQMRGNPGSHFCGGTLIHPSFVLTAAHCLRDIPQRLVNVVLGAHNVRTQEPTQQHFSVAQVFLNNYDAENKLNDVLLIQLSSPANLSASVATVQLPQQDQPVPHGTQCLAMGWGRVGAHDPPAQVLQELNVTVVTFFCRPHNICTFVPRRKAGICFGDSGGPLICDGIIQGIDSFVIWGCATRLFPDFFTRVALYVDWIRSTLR
Nature of the experiment: cell-based or functional assay.

For experiment [3], the target named is T1, human neutrophil elastase. As to the kind of experiment: cell-based or functional assay. The source holds these as a separate data set.
Experiment [4] addresses T3, mouse neutrophil elastase (mouse, UniProt Q3UP87 29-265, limits assumed).
T3 sequence (looked up): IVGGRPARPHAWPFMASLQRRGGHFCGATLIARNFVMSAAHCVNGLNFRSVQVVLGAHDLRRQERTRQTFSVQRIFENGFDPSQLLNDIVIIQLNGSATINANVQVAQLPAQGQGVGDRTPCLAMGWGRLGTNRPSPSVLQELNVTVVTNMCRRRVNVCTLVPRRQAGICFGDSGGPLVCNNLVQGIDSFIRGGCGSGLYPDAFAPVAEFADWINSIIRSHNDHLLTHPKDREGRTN
Nature of the experiment: cell-based or functional assay.

Experiment [5] concerns the target T3, mouse neutrophil elastase. As to the kind of experiment: enzymatic assay, substrate MeOSuc-Ala-Ala-Pro-Val-AMC, Morrison equation for tight binders, N=6.
Description: The substrate used were Succinyl-Ala-Ala-Ala-paraNitroAnilide (1 mM in 0.1 M Tris pH 7.5 with NaCl 0.5 M and NaN3 0.01%, % w/v from Sigma-Aldrich) for pPE, MeOSuc-Ala-Ala-Pro-Val-AMC (100 μM in Tris 50 mM, NaCl 1 M, 0.05% (% w/v) Brij-35, pH 7.5) for mNE, N-Succinyl-Ala-Ala-Pro-Phe p-nitroanilide (0.45 mM in 100 mM HEPES pH 7.5, from Sigma Aldrich) for hCG and Boc-Ala-Ala-Nva-SBzl (0.22 mM in 100 mM MOPS pH 5.0 0.5 M NaCl, 100 μM DTNB, DMSO 10%, from EPC) for PR3. mNE (rmELA2 from R&D systems, United Kingdom) was first activated according to the supplier information. In brief, mNE was incubated with recombinant mouse active cathepsin C/DPPIy (rmCathepsin C from R&D systems) in MES 50 mM, NaCl 50 mM, pH 5.5 for 2 h at 37° C. […] The hydrolysis of the substrate and the determination of the residual activity were carried out as explained above for the inhibition of hNE.
Experiment [6] addresses T1, human neutrophil elastase. Nature of the experiment: enzymatic assay, substrate N-Succinyl-Ala-Ala-Ala-pNA, Morrison equation for tight binders, N=3.
Description: Inhibition of the hydrolysis of a chromogenic substrate. […] Briefly, hNE (Elastin products company, EPC, United States) was resuspended at 1 mg·mL⁻¹ in 50 mM sodium acetate buffer pH 5 containing 100 mM NaCl and stored at 4° C. The substrate Succinyl-Ala-Ala-Ala-paraNitroAnilide was dissolved at 1 mM in 0.1 M Tris pH 7.5 with NaCl 0.5 M and NaN3 0.01% (% w/v) and stored at 4° C. 230 μl of substrate (1 mM) were mixed with 10 μl of Bovine Serum Albumin 9 μM (BSA, Sigma-Aldrich, Germany) and incubated 20 min at 25° C. in a clear flat bottom 96-well plate (Greiner Bio-One, Belgium). […] Immediately after, the hNE was added to the mix at a final concentration of 50 nM. […] The initial velocity determined in the presence of the ISVD at different Nb: hNE ratios was compared to that measured in the absence of the ISVD, to determine the residual activity. The delay between the addition of hNE and the first measurement was about 100 seconds. […] In some experiments, the ISVD was preincubated for 15 minutes with the hNE and the complex was added to the substrate.
The Kᵢ was calculated averaging three Kᵢ of three independent curves, each curve representing experiment carried out with a different lot of production of the Nb.

B1: NbE201 (VHH)
VHH: QVQLQESGGGLVQAGGSLRLSCVVPGRTISLYRMGWFRQAPGKEREFVAGINWSGDMTDYVDSVKGRFTISRDNAKNTVYLEMNSLKPEDTAIYYCTADPKLLPLADSSYGYWGQGTQVTVSS
notes: Llama VHH made in the periplasm of E. coli WK6 (pHEN6 vector) and purified by IMAC; This form was used in the enzymatic assays and for crystallisation; also called NbE201 wt; NbE201-WT
Consider B1, for which, in experiment [1], the “IC50, inhibition of elastin hydrolysis by hNE (132 nM)” value amounted to 488 nM; the “fold inhibitory activity relative to mNE” value is about 10 fold; the “molar ratio inhibitor:hNE for total elastase inhibition in vitro” value was 3 NbE201:hNE molar ratio. Moreover, in experiment [2], the “inhibition of protease activity at NbE201:enzyme ratio of 60” value worked out at 20%. The “IC50, inhibition of hydrolysis of N-Succinyl-Ala-Ala-Ala-paraNitroAnilide by hNE (50 nM)” value in experiment [3] turned out to be 38.3 nM. For the same molecule, in experiment [4], the “IC50, inhibition of hydrolysis of MeOSuc-Ala-Ala-Pro-Val-AMC by mNE (14.7 nM)” value was found to be 49.4 nM. Also, in experiment [5], the Ki – broadly, the dissociation constant of the complex between target and ligand, obtained from inhibition or displacement – worked out at 38.8 nM. In experiment [6], this molecule gave a Ki of 4.1 nM.
